“Also recorded” adds a separate entry of the source.
Tests used:
Type in all cases: cell-based, human
[1] = test system: monocytes from cancer patients (cMo); experiment: cMo survival in vitro (STAT3 activators, inhibitors, M-CSF/GM-CSF, KX1); conditions: for effect of inhibitor on KX1-supported cMo survival: cMo in KX1; for cMo survival (and differentiation) on supplementation: IL-10-depleted KX1 / in place of IL-10
From the text: After two days, the T cell culture medium was used to treat cMo.
IL-10/IL-10R signaling activates the downstream STAT3 signaling pathway.
(§1) The mechanisms by which KX1 could promote cMo survival was further studied.

[2] = test system: monocytes from healthy donors (Mo); experiment: Response of monocytes from healthy donors (Mo) to M-CSF and GM-CSF
From the text: Similarly, cMo poorly respond to GM-CSF alone or GM-CSF plus IL-4 that drives DC differentiation (data not shown). […] Parallel experiments testing the same M-CSF and GM-CSF reagents successfully differentiated Mo from healthy donors with >90% survival rates.
(§2) Examination of Akt and Erk1/2, as well as other signaling molecules, detected similar total levels in Mo versus cMo (FIG. 2C), ruling out the absence of protein phosphorylation due to reduction of protein translation.

[3] = test system: monocytes from cancer patients (cMo); experiment: Cytokine depletion assays of Karnelian X1 (cMo survival/adhesion and differentiation); conditions: for role of the cytokine in Karnelian X1 for cMo survival and differentiation: depletion assays
Description: The differentiation of cMo from >100 cancer patient samples was tested.
The role of IL-10 and other key factors in KX1 was further studied.

[4] = test system: Akt, Erk1/2, STAT3, caspase-9 and caspase-3 in cMo; experiment: Survival and apoptosis signal transduction in cMo (Western blotting)
From the text: as §2, §1
The role of IL-10 and other key factors in KX1 was further studied. As shown in FIG. 9A-9D, depletion of IL-10 diminished (>70%) KX1-mediated activation of Akt, Erk 1/2, and STAT3, and this global reduction of survival signal was associated with an increase in cell death signal through activation of caspase-9 and caspase-3.
As shown in FIG. 10A-10C, triple cytokine combination (C-combo V1) was capable of achieving >80% cMo differentiation, although each component alone was not sufficient.

[5] = in vitro, at optimal concentration
[6] = promoting cMo survival in vitro, small molecule STAT3 activators
[7] = promoting cMo survival in vitro
[8] = cytokine depleted from Karnelian X1

COc1ccc(S(=O)(=O)Nc2cc(-c3c(O)ccc4ccccc34)c(O)c3ccccc23)cc1 [C188-9, reference compound]
effect of inhibitor on KX1-supported cMo survival [1]: dose-dependently nullified the effect of KX1

NC1(Cc2ccc(Cl)cc2)CCN(c2ncnc3[nH]ccc23)CC1 [CCT128930, reference compound]
effect of inhibitor on KX1-supported cMo survival [1]: abrogated KX1 effectiveness

CC(=O)c1cc2c(o1)C(=O)c1ccccc1C2=O [Napabucasin, reference compound]
effect of inhibitor on KX1-supported cMo survival [1]: dose-dependently nullified the effect of KX1

GM-CSF: Granulocyte-macrophage colony-stimulating factor
survival signal transduction in Mo (activation of Akt and Erk1/2) [2]: induced strong survival signal transduction in Mo cells
role of the cytokine in Karnelian X1 for cMo survival and differentiation [3]: variable
cMo responsiveness to differentiation factor ([1]; over twenty cMo samples, various solid tumors): non- or poor responsiveness
activation of Akt, Erk1/2, STAT3 in cMo [4]: failed to activate Akt and Erk1/2
caspase-9 and caspase-3 cleavage in cMo [4]: increased caspase-9 and caspase-3 cleavage; also recorded: did induce apoptotic signals via cleavage of caspase-9 and caspase-3

COc1c(O)cc2oc3cc(O)c(CC=C(C)C)c(O)c3c(=O)c2c1CCC(C)(C)O [Garcinone D, reference compound]
cMo survival (and differentiation) on supplementation [1]: restored cMo survival
Effectiveness (cMo survival rate) [1, 5]: 90-100%
Optimal concentration (ng/mL) [1, 6]: 500 to 2000 ng/mL

Colivelin TFA [reference compound]
cMo survival (and differentiation) on supplementation [1]: restored cMo survival
Effectiveness (cMo survival rate) [1, 5]: 90-100%
Optimal concentration (ng/mL) [1, 6]: 10000 to 100000 ng/mL

IL-6: Interleukin 6, IL-6 family cytokine
role of the cytokine in Karnelian X1 for cMo survival and differentiation [3]: variable
cMo survival (and differentiation) on supplementation [1]: only moderately supported cMo survival and differentiation
Effectiveness (cMo survival rate) [1, 5]: 20-30%
Optimal concentration [1, 7]: 20 to 100 ng/mL
activation of Akt, Erk1/2, STAT3 in cMo [4]: weaker ability to activate Akt in cMo

TNFα
reduction of cMo adhesion and survival on depletion of the cytokine from Karnelian X1 [3, 8]: ~20%

Cc1[nH]nc2ccc(-c3cncc(OC[C@@H](N)Cc4ccccc4)c3)cc12 [A-674563, reference compound]
effect of inhibitor on KX1-supported cMo survival [1]: abrogated KX1 effectiveness

N#CC(=C(/N)Sc1ccccc1N)/C(C#N)=C(\N)Sc1ccccc1N [U0126, reference compound]
effect of inhibitor on KX1-supported cMo survival [1]: abrogated KX1 effectiveness

JAK inhibitor I [reference compound]
effect of inhibitor on KX1-supported cMo survival [1]: dose-dependently nullified the effect of KX1

IL-17: cytokine in Karnelian X1
role of the cytokine in Karnelian X1 for cMo survival and differentiation [3]: dispensable

B1: IL-23: IL-12 family cytokine, STAT3 activator (protein, UniProt Q9NPF7 20-189; P29460 23-328, looked up)
Interleukin-23 subunit alpha: RAVPGGSSPAWTQCQQLSQKLCTLAWSAHPLVGHMDLREEGDEETTNDVPHIQCGDGCDPQGLRDNSQFCLQRIHQGLIFYEKLLGSDIFTGEPSLLPDSPVGQLHASLLGLSQLLQPEGHHWETQQIPSLSPSQPWQRLLLRFKILRSLQAFVAVAARVFAHGAATLSP
Interleukin-12 subunit beta: IWELKKDVYVVELDWYPDAPGEMVVLTCDTPEEDGITWTLDQSSEVLGSGKTLTIQVKEFGDAGQYTCHKGGEVLSHSLLLLHKKEDGIWSTDILKDQKEPKNKTFLRCEAKNYSGRFTCWWLTTISTDLTFSVKSSRGSSDPQGVTCGAATLSAERVRGDNKEYEYSVECQEDSACPAAEESLPIEVMVDAVHKLKYENYTSSFFIRDIIKPDPPKNLQLKPLKNSRQVEVSWEYPDTWSTPHSYFSLTFCVQVQGKSKREKKDRVFTDKTSATVICRKNASISVRAQDRYYSSSWSEWASVPCS
cMo survival (and differentiation) on supplementation [1]: could replace IL-10 to support cMo survival and differentiation
Effectiveness (cMo survival rate) [1, 5]: 50-70%
Optimal concentration (ng/mL) [1, 7]: >10 ng/mL (10-100)

B2: IL-11: IL-6 family member cytokine (protein, UniProt P20809 22-199, looked up)
Interleukin-11: PGPPPGPPRVSPDPRAELDSTVLLTRSLLADTRQLAAQLRDKFPADGDHNLDSLPTLAMSAGALGALQLPGVLTRLRADLLSYLRHVQWLRRAGGSSLKTLEPELGTLQARLDRLLRRLQLLMSRLALPQPPPDPPAPPLAPPSSAWGGIRAAHAILGGLHLTLDWAVRGLLLLKTRL
cMo survival (and differentiation) on supplementation [1]: only moderately supported cMo survival and differentiation

B3: G-CSF: growth factor tested in IL-10-depleted KX1 (protein, UniProt P09919 31-207, looked up)
Granulocyte …: TPLGPASSLPQSFLLKCLEQVRKIQGDGAALQEKLVSECATYKLCHPEELVLLGHSLGIPWAPLSSCPSQALQLAGCLSQLHSGLFLYQGLLQALEGISPELGPTLDTLQLDVADFATTIWQQMEELGMAPALQPTQGAMPAFASAFQRRAGGVLVASHLQSFLEVSYRVLRHLAQP
Effectiveness (cMo survival rate) ([1]; in IL-10-depleted KX1): 30-40% in
Optimal concentration (ng/mL) ([1]; in IL-10-depleted KX1): >1 ng/mL (1-200)

B4: IL-4: Interleukin 4, cytokine in Karnelian X1 (protein, UniProt P05112 25-153, looked up)
Interleukin-4: HKCDITLQEIIKTLNSLTEQKTLCTELTVTDIFAASKNTTEKETFCRAATVLRQFYSHHEKDTRCLGATAQQFHRHKQLIRFLKRLDRNLWGLAGLNSCPVKEANQSTLENFLERLKTIMREKYSKCSS
reduction of cMo differentiation to APCs [3, 8]: ~50%
role of the cytokine in Karnelian X1 for cMo survival and differentiation [3]: did not affect cMo survival/adhesion

B5: IL-19: IL-10 family cytokine, STAT3 activator (protein, UniProt Q9UHD0 25-177, looked up)
Interleukin-19: LRRCLISTDMHHIEESFQEIKRAIQAKDTFPNVTILSTLETLQIIKPLDVCCVTKNLLAFYVDRVFKDHQEPNPKILRKISSIANSFLYMQKTLRQCQEQRQCHCRQEATNATRVIHDNYDQLEVHAAAIKSLGELDVFLAWINKNHEVMFSA
cMo survival (and differentiation) on supplementation [1]: could replace IL-10 to support cMo survival and differentiation
Effectiveness (cMo survival rate) [1, 5]: 70-85%
Optimal concentration (ng/mL) [1, 7]: >10 ng/mL (10-100)

B6: IL-10: Interleukin 10, cytokine; recombinant form added back; IL-10 family STAT3 activator (protein, UniProt P22301 19-178, looked up)
Interleukin-10: SPGQGTQSENSCTHFPGNLPNMLRDLRDAFSRVKTFFQMKDQLDNLLLKESLLEDFKGYLGCQALSEMIQFYLEEVMPQAENQDPDIKAHVNSLGENLKTLRLRLRRCHRFLPCENKSKAVEQVKNAFNKLQEKGIYKAMSEFDIFINYIEAYMTMKIRN
remnant cells that survived IL-10 depletion ([3]; IL-10 depleted from Karnelian X1): 5-20%
reduction of cMo adhesion and survival on depletion of the cytokine from Karnelian X1 [3, 8]: 60-80%
role of the cytokine in Karnelian X1 for cMo survival and differentiation [3]: only weakly influence cMo differentiation to APCs
cMo survival (and differentiation) on supplementation [1]: dose-dependently restored its survival capacity
Effectiveness (cMo survival rate) [1, 5]: 90-100%
Optimal concentration (ng/mL) [1, 7]: >10 ng/mL (10-100)
diminution of KX1-mediated activation of Akt, Erk 1/2 and STAT3 ([4]; cytokine depleted from KX1): > 70%

B7: IL-24: IL-10 family cytokine, STAT3 activator (protein, UniProt Q13007 52-206, looked up)
Interleukin-24: QEFHFGPCQVKGVVPQKLWEAFWAVKDTMQAQDNITSARLLQQEVLQNVSDAESCYLVHTLLEFYLKTVFKNYHNRTVEVRTLKSFSTLANNFVLIVSQLQPSQENEMFSIRDSAHRRFLLFRRAFKQLDVEAALTKALGEVDILLTWMQKFYKL
cMo survival (and differentiation) on supplementation [1]: could replace IL-10 to support cMo survival and differentiation
Effectiveness (cMo survival rate) [1, 5]: 70-85%
Optimal concentration (ng/mL) [1, 7]: >20 ng/mL (20-100)

B8: IL-22: IL-10 family cytokine, STAT3 activator (protein, UniProt Q9GZX6 34-179, looked up)
Interleukin-22: APISSHCRLDKSNFQQPYITNRTFMLAKEASLADNNTDVRLIGEKLFHGVSMSERCYLMKQVLNFTLEEVLFPQSDRFQPYMQEVVPFLARLSNRLSTCHIEGDDLHIQRNVQKLKDTVKKLGESGEIKAIGELDLLFMSLRNACI
cMo survival (and differentiation) on supplementation [1]: could replace IL-10 to support cMo survival and differentiation
Effectiveness (cMo survival rate) [1, 5]: 80-100%
Optimal concentration (ng/mL) [1, 7]: >10 ng/mL (10-100)

B9: IFNγ: Interferon gamma, cytokine in Karnelian X1 (protein, UniProt P01579 24-161, looked up)
Interferon gamma: QDPYVKEAENLKKYFNAGHSDVADNGTLFLGILKNWKEESDRKIMQSQIVSFYFKLFKNFKDDQSIQKSVETIKEDMNVKFFNSNKKKRDDFEKLTNYSVTDLNVQRKAIHELIQVMAELSPAAKTGKRKRSQMLFRG
reduction of cMo adhesion and survival on depletion of the cytokine from Karnelian X1 [3, 8]: ~20%
